We go through five molecules from publication PMC9169922.

Data set [1] has as its target T1, DNA polymerase alpha catalytic domain (PolαCD) (human, UniProt P09884 338-1250). As to the kind of experiment: BLI. For orientation: BLI is a label-free optical method that tracks binding on a fibre tip over time.
Data set [2] has as its target T1, DNA polymerase alpha catalytic domain …. As to the kind of experiment: BLI. The source holds these as a separate data set.
The target is the same in data set [3]. As to the kind of experiment: BLI. The source holds these as a separate data set.
The target is the same in data set [4]. As to the kind of experiment: BLI. The source holds these as a separate data set.
Data set [5] has the same target. In words: BLI. This is another data set of the same source.
Data set [6] has the same target. As to the kind of experiment: crystal structure.

Like-named read-outs stand apart in the source and are kept apart here.

T1 sequence (P09884 338-1250): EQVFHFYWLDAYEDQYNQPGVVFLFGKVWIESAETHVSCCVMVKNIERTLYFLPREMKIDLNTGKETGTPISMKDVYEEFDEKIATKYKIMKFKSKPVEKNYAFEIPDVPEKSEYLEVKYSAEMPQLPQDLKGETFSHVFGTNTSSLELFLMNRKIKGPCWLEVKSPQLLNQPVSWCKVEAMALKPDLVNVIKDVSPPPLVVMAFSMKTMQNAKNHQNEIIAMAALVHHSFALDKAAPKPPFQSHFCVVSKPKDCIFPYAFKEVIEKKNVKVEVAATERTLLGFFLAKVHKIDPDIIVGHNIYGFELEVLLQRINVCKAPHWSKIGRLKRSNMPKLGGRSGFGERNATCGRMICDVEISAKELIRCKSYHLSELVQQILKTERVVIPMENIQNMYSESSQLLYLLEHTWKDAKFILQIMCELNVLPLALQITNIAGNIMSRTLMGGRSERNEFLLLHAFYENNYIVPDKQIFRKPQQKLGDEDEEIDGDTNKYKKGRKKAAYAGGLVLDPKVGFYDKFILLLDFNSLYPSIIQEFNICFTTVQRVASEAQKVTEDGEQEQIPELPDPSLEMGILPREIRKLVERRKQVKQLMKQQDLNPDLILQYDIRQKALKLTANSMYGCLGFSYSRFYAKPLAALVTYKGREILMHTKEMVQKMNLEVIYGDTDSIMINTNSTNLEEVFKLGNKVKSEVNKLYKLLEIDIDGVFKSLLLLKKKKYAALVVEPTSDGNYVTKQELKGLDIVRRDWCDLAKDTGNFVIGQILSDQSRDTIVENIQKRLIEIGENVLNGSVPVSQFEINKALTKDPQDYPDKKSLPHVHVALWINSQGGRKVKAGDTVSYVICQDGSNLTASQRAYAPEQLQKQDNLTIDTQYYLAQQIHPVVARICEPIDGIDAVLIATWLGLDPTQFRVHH

B1: C-C mismatch template:primer (dsDNA)
DNA 1: AATACATAACCGCTCCAGGCAAT
DNA 2: GCCTGGAGCGC
modifications: primer 3'-terminal dideoxycytidine
Broadly, the Kd is the free concentration of one partner at which half of the binding sites on the other are occupied at equilibrium, for simple one-to-one binding. The low end stands for higher affinity, the high end for lower affinity. Turning to B1, the dissociation constant (Kd) in data set [1] is 11.7 ± 0.42 nM; in data set [2], 646 ± 11 nM.

B2: G-C template:primer (matched) (dsDNA)
DNA 1: AATACATAAGCGCTCCAGGCAAT
DNA 2: GCCTGGAGCGC
modifications: primer 3'-terminal dideoxycytidine
In the case of B2, the Kd in data set [3] stood at 1200 nM; in data set [4] it was 30.2 ± 1.3 nM; in data set [1], 40.8 ± 1.6 nM; in data set [5] it was 168 ± 17 nM; in data set [2], 1400 ± 130 nM.

B3: A-C mismatch template:primer (dsDNA)
DNA 1: AATACATAAACGCTCCAGGCAAT
DNA 2: GCCTGGAGCGC
modifications: primer 3'-terminal dideoxycytidine
Take B3: the equilibrium dissociation constant (Kd) came to 12.6 ± 1.3 nM in data set [1] and 987 ± 18 nM in data set [2].

B4: T-C mismatch template:primer (dsDNA)
DNA 1: AATACATAATCGCTCCAGGCAAT
DNA 2: GCCTGGAGCGC
modifications: primer 3'-terminal dideoxycytidine
For B4, the Kd in data set [1] was 14.2 ± 0.13 nM; in data set [2] it was 462 ± 43 nM.

B5: T-C mismatch DNA template:RNA primer (crystal) (DNA:RNA)
DNA: ATAGTCGCTCCAGGC
RNA: GCCUGGAGCGC
modifications: RNA primer with 3'-terminal dideoxycytidine
With B5, in data set [6], the binding result was “binds”.
